Source: PMC5182127, “Cellular and viral peptides bind multiple sites on the N‐terminal domain of clathrin” (Traffic (Copenhagen, Denmark), 2016)
Substitutions are numbered along the chain they refer to. Numbers in names are those of the source.

T1: GST‐Amph4T1 (rat, UniProt O08838 349-356)
T1 construct: also called extended amphiphysin CBM construct; source: E. coli BL21(DE3) pLysS, purified (glutathione resin, SEC)
T1 chain: ETLLDLDFLERPHRD

T2: GST‐AP2CBM (human, UniProt P63010 629-640)
T2 construct: also called CBM from flexible hinge of β2 adaptin subunit of human AP2; source: E. coli BL21(DE3) pLysS, purified (glutathione resin, SEC); not shown: GST, N-terminal, kept
T2 chain (looked up): GDLLNLDLGPPV

T3: GST‐AmphCBM (human, UniProt P49418 349-358)
T3 construct: also called human amphiphysin I CBM; source: E. coli BL21(DE3) pLysS, purified (glutathione resin, SEC); not shown: GST, N-terminal, kept
T3 chain (looked up): ETLLDLDFDP

T4: GST‐AP2arrS (human, UniProt P63010 623-632)
T4 construct: also called extended arrestin motif (LLGDLL); source: E. coli BL21(DE3) pLysS, purified (glutathione resin, SEC); not shown: GST, N-terminal, kept
T4 chain (looked up): SQGDLLGDLL

T5: clathrin heavy chain N‐terminal domain (1‐363) (bovine, UniProt P49951 1-363)
T5 construct: also called NTD; clathrin NTD; source: E. coli BL21(DE3) pLysS, purified (glutathione Sepharose, thrombin cleavage, Superdex 200); not shown: GST, N-terminal, cleaved
T5 sequence (looked up): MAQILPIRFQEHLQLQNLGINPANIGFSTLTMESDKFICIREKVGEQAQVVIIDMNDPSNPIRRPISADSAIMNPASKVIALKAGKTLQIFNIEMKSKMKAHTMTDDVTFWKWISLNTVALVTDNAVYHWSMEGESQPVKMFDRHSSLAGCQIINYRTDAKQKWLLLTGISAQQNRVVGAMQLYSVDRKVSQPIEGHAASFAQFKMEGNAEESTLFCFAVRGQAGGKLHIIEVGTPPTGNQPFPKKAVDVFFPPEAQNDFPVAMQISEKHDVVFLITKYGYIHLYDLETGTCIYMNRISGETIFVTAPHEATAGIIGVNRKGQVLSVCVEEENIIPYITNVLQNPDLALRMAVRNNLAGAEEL

B1: His‐NTD‐NEMO Q89A + F91K (other, UniProt P49951 1-363, looked up)
chain: MAQILPIRFQEHLQLQNLGINPANIGFSTLTMESDKFICIREKVGEQAQVVIIDMNDPSNPIRRPISADSAIMNPASKVIALKAGKTLAIKNIEMKSKMKAHTMTDDVTFWKWISLNTVALVTDNAVYHWSMEGESQPVKMFDRHSSLAGCQIINYRTDAKQKWLLLTGISAQQNRVVGAMQLYSVDRKVSQPIEGHAASFAQFKMEGNAEESTLFCFAVRGQAGGKLHIIEVGTPPTGNQPFPKKAVDVFFPPEAQNDFPVAMQISEKHDVVFLITKYGYIHLYDLETGTCIYMNRISGETIFVTAPHEATAGIIGVNRKGQVLSVCVEEENIIPYITNVLQNPDLALRMAVRNNLAGAEELKSSVVGSERKRGMQLEDLKQQLQQAEEALVAKQEVIDKLKEEAEQHKIVMETVPVLKAQADIYKADFQAERQAREKLAEKKELLQEQLEQLQREYSKLKASCQESARIEDMRKRHVEVSQ
notes: also called clathrin box mutant; not shown: His6, N-terminal, kept
B2: His‐NTD‐NEMO Q192Y (other, UniProt P49951 1-363, looked up)
chain: B1 chain with A89Q, K91F, Q192Y
notes: also called arrestin box mutant; not shown: His6, N-terminal, kept
B3: His‐NTD‐NEMO Q89A + F91K + Q192Y (other, UniProt P49951 1-363, looked up)
chain: B1 chain with Q192Y
notes: also called His‐NTD‐NEMO mutated at both the clathrin and arrestin boxes; not shown: His6, N-terminal, kept
B4: His‐NTD‐NEMO Q89A + F91K + F9W (other, UniProt P49951 1-363, looked up)
chain: B1 chain with F9W
notes: also called mutant with disrupted clathrin and Royle boxes; printed in the text as Q98A + F91K + F9W; not shown: His6, N-terminal, kept
B5: AP2CBMpep (peptide)
peptide: CGDLLNLDLG
notes: also called peptide of the β2 adaptin CBM; source: synthetic peptide, bought: Designer Bioscience
B6: AmphCBMpep (peptide)
peptide: ETLLDLDFDP
notes: also called peptide of the amphiphysin CBM; source: synthetic peptide, bought: Genscript
B7: HDAg‐L1pep (peptide)
peptide: SDILFPADS
notes: also called peptide of the putative CBM of HDAg-L1; source: synthetic peptide, bought: Designer Bioscience
B8: AmphCBMlongpep (peptide)
peptide: ETLLDLDFDPFK
notes: source: synthetic peptide, bought: Genscript
B9: HDAg‐L2pep (peptide)
peptide: SPRLPLLES
notes: also called peptide of the putative CBM of HDAg-L2; source: synthetic peptide, bought: Designer Bioscience
B10: Amph4T1pep (peptide)
peptide: ETLLDLDFLE
notes: as for B8

Columns and labels:
Details in all cases: both partners purified
[1] = biological target: T1, GST‐Amph4T1; assay: pull-down; 500 µg GST or GST-peptide bait on glutathione sepharose 4B; 0.1 mg/mL wild-type or mutant His-NTD-NEMO as prey, 2 h, 4°C; 25 mM HEPES-KOH, 125 mM potassium acetate, 5 mM magnesium acetate, 2 mM EDTA, 2 mM EGTA, 1 mM DTT, pH 7.2; washes with PBS; immunoblot with anti-clathrin NTD antibody
[2] = biological target: T2, GST‐AP2CBM; assay: as above
[3] = biological target: T3, GST‐AmphCBM; assay: as above
[4] = biological target: T4, GST‐AP2arrS; assay: as above
[5] = biological target: T5, clathrin heavy chain N‐terminal domain …; assay: crystal structure; co-crystals of NTD (14 or 20 mg/mL) with 3.4-3.6 mM peptide, sitting drop, 20°C, sodium malonate; peptide also in the cryoprotectant

Binder | binding result [1] | binding result [2] | binding result [3] | binding result [5] | further results
B1 | binds | binds | binds |  | 
B2 | binds | binds | binds |  | 
B3 | binds |  | binds |  | 
B4 | binds | binds |  |  | binding result [4]: binds
B5 |  |  |  | binds | 
B6 |  |  |  | binds | 
B7 |  |  |  | binds | 
B8 |  |  |  | binds | 
B9 |  |  |  | binds | 
B10 |  |  |  | binds | 
